{"source": "patent US5932425A", "about": "“Compositions and methods for modulating cellular NF-κB activation” (Signal Pharmaceuticals, Inc., priority 1997, dated 1999)", "key": {"[1]": {"tested_on": "NF-κB nuclear translocation in HeLa cells", "assay": "Microinjection into HeLa cells, TNFα activation, p65 nuclear staining", "assay_type": "cell-based, human", "conditions": "5 mg/ml microinjected, TNFα 200 units/mL for 20 minutes", "protocol": "Following microinjection, cells are stimulated (e.g., with TNFα) and incubated to allow NF-κB activation. In HeLa cells, TNFα induces rapid nuclear translocation of NF-κB into the nucleus, which may be detected by staining with p65-specific antibodies. Modulating agents induce a statistically significant decrease in NF-κB translocation, and may reduce such translocation to undetectable levels.\n(§1) HeLa cells were plated on a grid coverslips (Cellocate, Eppendorf) 18 hours before microinjection. Microinjection was performed with a 22 amino acid pIκBα peptide (pp21; Table I and SEQ ID NO:9) or a control phospho-Fos peptide (SEQ ID NO:10) using a semi-automated apparatus (Eppendorf). Peptides were injected into the cell cytoplasm at a concentration of 5 mg/ml in 100 mM KCl, 5 mM Na2 HPO4 (pH 7.2), and immediately activated with TNFα (200 units/mL) for either 20 minutes (for NF-κB translocation) or 3 hours (for E-selectin expression). Following activation, the cells were fixed and stained with p65 specific antibodies (Mercurio et al., Genes & Dev. 7:705, 1993; Santa Cruz) or monoclonal anti-E-selectin antibodies (R&D Systems)."}, "[2]": {"tested_on": "E-selectin expression in HUVEC", "assay": "Microinjection into HUVEC, TNFα activation, E-selectin staining", "assay_type": "cell-based, human", "conditions": "5 mg/ml microinjected, TNFα 3 hours", "from_the_text": "Primary human vascular endothelial cells (HUVEC) respond to TNFα stimulation by surface expression of NF-κB regulated adhesion proteins such as ICAM-1, V-CAM-1 and E-selectin (Read et al., Immunity 2:493,1995; Chen et al., J. Immunol 155:3538, 1995). E-selectin expression is particularly NF-κB dependent and is the major inducible endothelial adhesion molecule for initial neutrophil attachment and rolling on activated endothelium. Stimulated cells may be fixed and stained to detect expression of one or more NF-κB regulated adhesion proteins.\nas §1, with “Systems). […]” for “Systems).”"}, "[3]": {"biological_target": "pIκBα ubiquitination (E3 ubiquitin ligase)", "assay": "In vitro ubiquitination assay of phosphorylated, NF-κB complex-associated IκBα", "assay_type": "biochemical, human", "conditions": "complex-associated 35S-pIκBα, HeLa extract, Bestatin 40 μg/ml; read-out: IC50 of inhibition of the pIκBα ubiquitin conjugation reaction", "protocol": "Following incubation, 1 μl of anti-p65 serum was added, and the NF-κB immune complex was immobilized to Protein A-Sepharose® and subjected to in vitro ubiquitination in HeLa cell extract as described by Alkalay et al. Ubiquitinated proteins were separated by SDS-PAGE and visualized by autoradiography.\nTo identify the IκBα-ubiquitin ligase recognition motif, various peptides were added at varying concentrations to the reaction mixtures in the presence of the peptidase inhibitor Bestatin (40 μg/ml). The peptides spanned the N-terminal signaling domain of the protein, and were phosphorylated at one or both serine residues (32 and 36), or were unmodified or serine-substituted. These peptides were included in the ubiquitination reaction at different concentrations and tested for inhibition of pIκBα specific ubiquitination. When conjugation of free IκBα was monitored, the translated protein was added directly to the conjugation reaction mixture."}, "[4]": {"biological_target": "specific E3 ubiquitin ligase that recognises phosphorylated IκB"}}, "note": "Non-standard residues stand in square brackets, D forms with d. No end group written: not given here. pS = N[C@@H](COP(=O)(O)O)C(=O)O"}
{"molecule": "CKKERLLDDRHDS*GLDS*MKDEE (CKKERLLDDRHD[pS]GLD[pS]MKDEE) [pp21]", "values": [{"measurement": "microinjected cells in which TNFα-stimulated NF-κB activation was abolished", "setting": "[1]", "value": "50%-70%"}, {"measurement": "microinjected cells with inhibition of E-selectin expression", "setting": "[2]", "value": "70%-80%"}]}
{"molecule": "CDS*GLDS*M (CD[pS]GLD[pS]M) [pp7]", "values": [{"measurement": "IC50", "setting": "[3]", "value": 10, "unit": "µM"}]}
{"molecule": "CERLLDDRHD[pS]GLD[pS]MKDEE", "note": "[doubly phosphorylated IκBα peptide pp19]", "values": [{"measurement": "IC50 of inhibition of the pIκB conjugation reaction", "setting": "[4]", "value": 5, "unit": "µM"}]}
{"molecule": "CDDRHD[pS]GLD[pS]MKDEE", "note": "[doubly phosphorylated IκBα peptide pp15]", "values": [{"measurement": "IC50 of inhibition of the pIκB conjugation reaction", "setting": "[4]", "value": 5, "unit": "µM"}]}
{"molecule": "CDDRHD[pS]GLD[pS]M", "note": "[doubly phosphorylated IκBα peptide pp11]", "values": [{"measurement": "IC50 of inhibition of the pIκB conjugation reaction", "setting": "[4]", "value": 5, "unit": "µM"}]}
{"molecule": "CD[pS]GLD[pS]M", "note": "[doubly phosphorylated IκBα peptide pp7]", "values": [{"measurement": "IC50 of inhibition of pIκBα ubiquitination", "setting": "[4]", "value": 10, "unit": "µM"}]}
{"molecule": "CKKERLLDDRHD[pS]GLDSMKDEE", "note": "[singly phosphorylated IκBα peptide ppS32]", "values": [{"measurement": "IC50 of inhibition of the pIκBα conjugation", "setting": "[4]", "value": 400, "unit": "µM"}]}
{"molecule": "CKKERLLDDRHDSGLD[pS]MKDEE", "note": "[singly phosphorylated IκBα peptide ppS36]", "values": [{"measurement": "IC50 of inhibition of the pIκBα conjugation", "setting": "[4]", "value": 400, "unit": "µM"}]}
{"molecule": "CKKERLLDDRHD[pS]GLD[pS]MKDEE", "note": "[doubly phosphorylated IκBα peptide pp21]", "values": [{"measurement": "IC50 of inhibition of the pIκB conjugation reaction", "setting": "[4]", "value": 5, "unit": "µM"}]}
